Results taken from publication PMC5177531 (2016).
Non-standard residues stand in square brackets, D forms with d. No end group written: not given here. *: point of attachment. NMeF = CN[C@@H](Cc1ccccc1)C(=O)O; NHCH2CH2OH = OCCN*

Biological target: T1, mDOR-1 (Mus musculus, UniProt P32300)
T1 chain: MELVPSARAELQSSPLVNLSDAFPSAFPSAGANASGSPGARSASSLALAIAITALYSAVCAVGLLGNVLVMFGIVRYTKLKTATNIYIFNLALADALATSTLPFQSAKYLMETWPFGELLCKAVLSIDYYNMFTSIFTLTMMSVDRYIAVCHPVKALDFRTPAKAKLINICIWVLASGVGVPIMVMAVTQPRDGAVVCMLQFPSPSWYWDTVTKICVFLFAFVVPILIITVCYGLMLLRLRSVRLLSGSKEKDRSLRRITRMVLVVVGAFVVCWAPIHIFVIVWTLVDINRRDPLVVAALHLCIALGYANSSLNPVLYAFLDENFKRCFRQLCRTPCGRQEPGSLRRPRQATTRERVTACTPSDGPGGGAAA
Test: 125I-IBNtxA competition, CHO membranes

**Q.** For Y[dA]G[NMeF][NHCH2CH2OH] [DAMGO], which Ki is on record?
**A.** The Ki was > 500 nM.
